{"source": "patent US20060233704A1", "about": "“Prochelator for the preparation of radiometal labeled molecules having improved biological properties” (priority 2000, published 2006)", "assay_type": "physicochemical", "experimental": "In addition, the stability is higher. The reaction of ^90Y-DOTATOC or ^90Y-DOTAGA at 37° C. with the chelator DTPA results in ^90Y-DTPA."}
{"smiles": "C[C@@H](O)[C@@H]1NC(=O)[C@H](CCCCN)NC(=O)[C@@H](Cc2c[nH]c3ccccc23)NC(=O)[C@H](Cc2ccc(O)cc2)NC(=O)[C@@H](NC(=O)[C@@H](Cc2ccccc2)NC(=O)CCC(C(=O)O)N2CCN(CC(=O)O)CCN(CC(=O)O)CCN(CC(=O)O)CC2)CSSC[C@@H](C(=O)N[C@H](CO)[C@@H](C)O)NC1=O", "note": "(single isomer, unassigned) [DOTAGA]", "values": [{"measurement": "half-life", "value": 79, "unit": "h"}]}
